The record followed here is patent US5750106.

This assay concerns the target gH glycoprotein of CMV (82,000 dalton component) (human cytomegalovirus (CMV), strain not stated).

B1: human monoclonal antibody SDZ MSL 109 (antibody, V domains shown)
VH: EEQVLESGGGLVKPGGSLRLSCAASGFTFSPYSVFWVRQAPGKGLEWVSSINSDSTYKYYADSVKGRFTISRDNAENSIFLQMNSLRAEDTAVYYCARDRSYYAFSSGSLSDYYYGLDVWGQG
VL: DIVMTQSPLSLSVTPGEPASISCRSSQSLLHTNGYNYLDWYVQKPGQSPQLLIYLASNRASGVPDRFSGSGSGTDFTLKISRVETEDVGVYYCMQALQIPRTFGQGTKVEIKR
Take B1: the neutralizing concentration (micro-neutralization assay) amounted to 100 ng/mL.
